In the supplement of paper PMC9112550, “Optimization of the antimicrobial peptide Bac7 by deep mutational scanning” (BMC Biology, 2022):

Test system: Escherichia coli TOP10
Assay: shrunken log2 fold change of peptide-encoding DNA abundance (4.5 h post-induction vs induction); higher = less antimicrobial activity (less host growth inhibition)
Conditions: time post-induction: 4.5 h; library: site-saturation at positions 5, 18, 19, 20
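Further: peptides expressed intracellularly from a pBAD plasmid library in pooled LB shake-flask culture, induced with 0.3% L-arabinose, DNA abundance read by NGS, three biological replicates, DESeq2 with apeglm shrinkage.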

Sequence | shrunken log2 fold change
RRIRHRPPRLPRPRPRPGTSPRP | -0.0565
RRIRLRPPRLPRPRPRPITQPRP | -0.264
RRIRNRPPRLPRPRPRPGWWPRP | -0.0419
RRIRMRPPRLPRPRPRPRMKPRP | 0.447
RRIRRRPPRLPRPRPRPKPSPRP | 0.294
RRIRWRPPRLPRPRPRPFPRPRP | 0.111
RRIRLRPPRLPRPRPRPTSHPRP | -0.0914
RRIRFRPPRLPRPRPRPNFPPRP | -0.254
RRIRMRPPRLPRPRPRPPHLPRP | 0.389
RRIRFRPPRLPRPRPRPWWVPRP | 0.00262
RRIRIRPPRLPRPRPRPGLIPRP | -0.627
RRIRARPPRLPRPRPRPHIMPRP | -0.277
RRIRPRPPRLPRPRPRPQAAPRP | 0.116
RRIRKRPPRLPRPRPRPNWFPRP | 0.188
RRIRDRPPRLPRPRPRPSIKPRP | -0.491
RRIRWRPPRLPRPRPRPFALPRP | -0.129
RRIRNRPPRLPRPRPRPNNLPRP | -0.202
RRIRCRPPRLPRPRPRPGFVPRP | 0.528
RRIRFRPPRLPRPRPRPRVHPRP | -0.0984
RRIRFRPPRLPRPRPRPADTPRP | -0.109
RRIRNRPPRLPRPRPRPVKVPRP | -0.0708
RRIRWRPPRLPRPRPRPPPGPRP | 1.08
RRIRFRPPRLPRPRPRPLHYPRP | -0.299

Sequence | shrunken log2 fold change
RRIRGRPPRLPRPRPRPEPRPRP | 1.35
RRIRKRPPRLPRPRPRPKVEPRP | 0.0183
RRIRPRPPRLPRPRPRPMNMPRP | -0.668
RRIRKRPPRLPRPRPRPIDAPRP | 0.318
RRIRFRPPRLPRPRPRPYFNPRP | -1.04
RRIRYRPPRLPRPRPRPWWMPRP | -0.452
RRIRLRPPRLPRPRPRPAANPRP | 0.273
RRIRCRPPRLPRPRPRPRNAPRP | 0.291
RRIRIRPPRLPRPRPRPRACPRP | -0.148
RRIRNRPPRLPRPRPRPLNSPRP | -0.162
RRIRERPPRLPRPRPRPEIRPRP | -0.163
RRIRYRPPRLPRPRPRPDTMPRP | -0.0156
RRIRIRPPRLPRPRPRPVPRPRP | 0.0562
RRIRDRPPRLPRPRPRPVQQPRP | -0.00151
RRIRNRPPRLPRPRPRPTYDPRP | -0.396
RRIRRRPPRLPRPRPRPHMNPRP | -0.315
RRIRQRPPRLPRPRPRPGAFPRP | -0.158
RRIRNRPPRLPRPRPRPCIQPRP | 0.00396
RRIRVRPPRLPRPRPRPCQIPRP | -0.34
RRIRHRPPRLPRPRPRPNNDPRP | -0.727
RRIRIRPPRLPRPRPRPGLRPRP | -0.0223
RRIRGRPPRLPRPRPRPGKGPRP | 0.394
RRIRMRPPRLPRPRPRPVECPRP | -0.117

Sequence | shrunken log2 fold change
RRIRLRPPRLPRPRPRPWYNPRP | 0.111
RRIRMRPPRLPRPRPRPEEWPRP | 0.00599
RRIRERPPRLPRPRPRPADPPRP | -0.35
RRIRNRPPRLPRPRPRPLQLPRP | -0.288
RRIRARPPRLPRPRPRPRMNPRP | 0.183
RRIRARPPRLPRPRPRPIGHPRP | 0.0734
RRIRGRPPRLPRPRPRPIHKPRP | -0.16
RRIRPRPPRLPRPRPRPPRSPRP | 0.518
RRIRCRPPRLPRPRPRPTEPPRP | 0.305
RRIRRRPPRLPRPRPRPQMCPRP | 0.0865
RRIRLRPPRLPRPRPRPIVWPRP | -0.027
RRIRSRPPRLPRPRPRPCDEPRP | 0.124
RRIRDRPPRLPRPRPRPAYCPRP | 0.00854
RRIRFRPPRLPRPRPRPVMRPRP | 0.518
RRIRSRPPRLPRPRPRPPEWPRP | 0.263
RRIRPRPPRLPRPRPRPASEPRP | 0.0613
RRIRSRPPRLPRPRPRPYTQPRP | -0.184
RRIRARPPRLPRPRPRPTEVPRP | 0.173
RRIRPRPPRLPRPRPRPPFRPRP | 0.529
RRIRNRPPRLPRPRPRPHNMPRP | -1.06
RRIRGRPPRLPRPRPRPEWTPRP | 1.27
RRIRQRPPRLPRPRPRPGPGPRP | 0.507
RRIRSRPPRLPRPRPRPACAPRP | 0.482

Sequence | shrunken log2 fold change
RRIRQRPPRLPRPRPRPSVEPRP | 0.218
RRIRRRPPRLPRPRPRPIIFPRP | -0.0332
RRIRFRPPRLPRPRPRPIELPRP | -0.537
RRIRSRPPRLPRPRPRPAGQPRP | -0.0166
RRIRGRPPRLPRPRPRPNSFPRP | -0.0356
RRIRFRPPRLPRPRPRPWASPRP | -0.0247
RRIRNRPPRLPRPRPRPSTAPRP | -0.28
RRIRTRPPRLPRPRPRPRCSPRP | -0.262
RRIRARPPRLPRPRPRPAIKPRP | 0.206
RRIRQRPPRLPRPRPRPHECPRP | -0.0866
RRIRHRPPRLPRPRPRPICVPRP | 0.0683
RRIRMRPPRLPRPRPRPLDSPRP | 0.204
RRIRGRPPRLPRPRPRPFGYPRP | -0.0838
RRIRSRPPRLPRPRPRPFQWPRP | 0.319
RRIRRRPPRLPRPRPRPGRHPRP | 0.212
RRIRGRPPRLPRPRPRPKVFPRP | -0.00639
RRIRNRPPRLPRPRPRPGAWPRP | 0.0927
RRIRNRPPRLPRPRPRPHHVPRP | -0.0011
RRIRCRPPRLPRPRPRPGHYPRP | -0.0646
RRIRCRPPRLPRPRPRPVNNPRP | -0.327
RRIRHRPPRLPRPRPRPTPRPRP | 0.609
RRIRLRPPRLPRPRPRPISTPRP | -0.161
